Measured values taken from the supplement of paper PMC6757056.
± gives the standard deviation of the averaged measurements.

B1: library; a variant is named by its letters at N, in order (parent)
chain: GCUGUCACCGGUGCUUGGUACGUUAUAUUCAGCCGGUCUGAUGAGUCUNNNNNNAGACGAAACAGC

Assays:
(6R,S)-folinic acid [1] = variants of: B1; test: normalized RNA/DNA level without ligand (relative to sTRSVctl = 100) (log10 (% of sTRSVctl)); HEK293T overexpressing SLC46A1; higher = less ribozyme self-cleavage, higher mRNA level; conditions: without (6R,S)-folinic acid; ligand present: no
Procedure, shortened: (§1)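 Library plasmids carrying ribozyme switches linked to mCherry, or to eGFP in some ligand experiments, were transfected into HEK293T at 4 µg per 6-well well, with any ligand added 1 h earlier. Seventy-two hours on, total RNA was extracted with EDTA and reverse-transcribed, amplified, barcoded and sequenced. RNA level was RNA over DNA reads normalized to a spiked-in non-cleaving sequence or to the top sequences, then scaled and log-transformed. The top set was 25 sequences, the transform was ×100 and log10, and sequences needed ≥100 DNA reads.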

(6R,S)-folinic acid [2] = variants of: B1; test: normalized RNA/DNA level with ligand (relative to sTRSVctl = 100) (log10 (% of sTRSVctl)); HEK293T overexpressing SLC46A1; ligand concentration (+) RNA-Seq: 6 mM; higher = less ribozyme self-cleavage, higher mRNA level; conditions: with (6R,S)-folinic acid; ligand present: yes
Procedure, shortened: as §1

Row | Variant | normalized RNA/DNA level without ligand (log10) ((6R,S)-folinic acid [1]) | normalized RNA/DNA level with ligand (log10) ((6R,S)-folinic acid [2])
1 | ACACAC | 2.019 ± 0.0045 | 2.01 ± 0.058
2 | ACACAA | 1.968 ± 0.019 | 1.98 ± 0.045
3 | ACACAG | 1.953 ± 0.0027 | 2.01 ± 0.048
4 | ACCACG | 2.023 ± 0.0076 | 2.061 ± 0.003
5 | ACCACU | 2.029 ± 0.0042 | 1.99 ± 0.066
6 | ACCACA | 2.021 ± 0.0096 | 2.01 ± 0.021
7 | ACCACC | 2.087 ± 0.0062 | 2.06 ± 0.04
8 | UCAGCC | 2.044 ± 0.0032 | 1.99 ± 0.039
9 | UCAGCA | 2.032 ± 0.016 | 2.062 ± 0.02
10 | UCAGCU | 2.046 ± 0.011 | 2.032 ± 0.0099
11 | GCAGGU | 1.934 ± 0.012 | 1.99 ± 0.03
12 | GCAGGC | 1.882 ± 0.0089 | 1.86 ± 0.042
13 | GCACAU | 1.991 ± 0.0072 | 2.01 ± 0.025
14 | GCACAG | 1.936 ± 0.0048 | 2 ± 0.024
15 | CCAUAU | 1.961 ± 0.0029 | 1.99 ± 0.032
16 | CCAUAC | 1.991 ± 0.012 | 1.96 ± 0.059
17 | CCAUAG | 1.922 ± 0.0071 | 1.99 ± 0.02
18 | CCAUAA | 1.98 ± 0.023 | 1.97 ± 0.027
19 | UCAUAG | 1.829 ± 0.0068 | 1.984 ± 0.015

Row | Variant | normalized RNA/DNA level without ligand (log10) ((6R,S)-folinic acid [1]) | normalized RNA/DNA level with ligand (log10) ((6R,S)-folinic acid [2])
20 | UCAUAU | 1.952 ± 0.0097 | 1.98 ± 0.03
21 | UCAUAC | 2.029 ± 0.0064 | 1.988 ± 0.019
22 | ACACGC | 1.981 ± 0.015 | 1.99 ± 0.049
23 | ACACGU | 2.023 ± 0.013 | 2.03 ± 0.022
24 | ACACGG | 1.934 ± 0.013 | 2.02 ± 0.04
25 | UCAAUC | 2.074 ± 0.0092 | 2.06 ± 0.048
26 | UCAAUA | 1.9534 ± 0.0012 | 1.98 ± 0.031
27 | UCAAUU | 2.013 ± 0.011 | 2.02 ± 0.014
28 | CCAUCA | 2.026 ± 0.0086 | 2.02 ± 0.05
29 | CCAUCC | 2.094 ± 0.013 | 2.06 ± 0.021
30 | CCAUCG | 2.012 ± 0.01 | 2.017 ± 0.014
31 | CCAUCU | 2.071 ± 0.0041 | 2.07 ± 0.035
32 | CCACUG | 2.02 ± 0.041 | 2.074 ± 0.018
33 | CCACUA | 2.018 ± 0.0041 | 2.02 ± 0.015
34 | CCACUC | 1.9795 ± 0.0011 | 2.008 ± 0.02
35 | GCAGCA | 2.048 ± 0.018 | 2.06 ± 0.037
36 | GCAGCU | 2.03 ± 0.029 | 2.02 ± 0.045
37 | GCAGCC | 2 ± 0.024 | 2.02 ± 0.025
38 | CCCCAA | 2.0237 ± 0.0015 | 1.999 ± 0.0078

Row | Variant | normalized RNA/DNA level without ligand (log10) ((6R,S)-folinic acid [1]) | normalized RNA/DNA level with ligand (log10) ((6R,S)-folinic acid [2])
39 | CCCCAC | 2.04 ± 0.022 | 2.05 ± 0.037
40 | CCCCAU | 2.031 ± 0.01 | 2.03 ± 0.045
41 | CCCCAG | 2.004 ± 0.019 | 2.038 ± 0.012
42 | ACAUCU | 2.024 ± 0.011 | 2.03 ± 0.037
43 | ACAUCG | 2.006 ± 0.014 | 2.07 ± 0.027
44 | CCCAAU | 2.023 ± 0.015 | 2.03 ± 0.028
45 | CCCAAG | 1.935 ± 0.014 | 1.99 ± 0.031
46 | CCCAAC | 2.042 ± 0.017 | 2.019 ± 0.017
47 | CCCAAA | 2.02 ± 0.025 | 2.026 ± 0.0099
48 | ACAUUU | 2 ± 0.024 | 2.019 ± 0.018
49 | ACAUUA | 2.006 ± 0.017 | 2.02 ± 0.034
50 | ACAUUG | 1.94 ± 0.032 | 2.024 ± 0.011
51 | ACAUUC | 2.072 ± 0.0067 | 2.027 ± 0.0058
52 | ACAGUU | 2 ± 0.012 | 2.01 ± 0.046
53 | ACAGUA | 1.947 ± 0.0079 | 1.99 ± 0.043
54 | ACAGUC | 2.0723 ± 0.0011 | 2.054 ± 0.0027
55 | CCAAUG | 1.998 ± 0.0065 | 2.022 ± 0.019
56 | CCAAUC | 2.028 ± 0.018 | 1.99 ± 0.049
57 | CCAAUU | 2.039 ± 0.0021 | 2.05 ± 0.037
